# Experimental data as given in doi:10.1101/2025.10.13.682238.
# Target: GST tag (glutathione S-transferase affinity tag, free in the ATAD2B sample)
# Experiment: SEC; Superdex 200 Increase 10/300 GL on an ÄktaPrime system, ATAD2B sample from E. coli compared with a molecular weight standard mixture (thyroglobulin 670 kDa, ovalbumin 44 kDa)
# GST tag (glutathione S-transferase affinity tag, free in the ATAD2B sample), sequence (P08515 2-218): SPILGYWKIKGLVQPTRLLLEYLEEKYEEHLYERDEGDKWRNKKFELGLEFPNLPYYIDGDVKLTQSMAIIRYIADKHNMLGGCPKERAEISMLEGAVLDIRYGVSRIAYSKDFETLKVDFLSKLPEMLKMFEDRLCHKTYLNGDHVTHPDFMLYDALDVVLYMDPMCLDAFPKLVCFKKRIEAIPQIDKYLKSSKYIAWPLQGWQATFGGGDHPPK
substance,measurement,value
"GST tag (glutathione S-transferase affinity tag, free in the ATAD2B sample) (natural protein)",stoichiometry N,2
